The values below come from US20210347908A1 (ELPISCIENCE SUZHOU BIOPHARMA, published 2021).

In assay [1] the target is 6×His tagged human SIRPα v2 ECD recombinant protein (human). The experiment in a line: SPR (Biacore). As to the method: (§1) Anti-SIRPα chimeric antibodies were characterized for binding affinity against human SIRPα v1, human SIRPα v2 and C57BL/6 mouse SIRPα using Biacore (GE). Briefly the antibodies to be tested were captured to CM5 chip (GE) using Human Antibody Capture Kit (GE). The antigens of 6×His tagged human SIRPα v1, human SIRPα v2 and C57BL/6 mouse SIRPα ECD recombinant proteins were serially diluted for multiple doses and injected at 30 μl/min for 180 s. Buffer flow was maintained for dissociation of 400 s. 3 M MgCl₂ was used for chip regeneration. The association and dissociation curves were fit with 1:1 binding model, and the Ka/Kd/KD values for each antibody were calculated.
For orientation: In SPR one partner is held on a chip, and binding of the other changes the refractive index at the surface.

The target in assay [2] is T1, 6×His tagged human SIRPα v1 ECD recombinant protein (human, UniProt P78324 31-373).
T1 construct: extracellular domain; bought; also called hSIRPα V1 (SPR antigen)
Put plainly: SPR (Biacore). The protocol: as §1

Assay [3] concerns the target T2, full length cyno SIRPα stably expressed on CHOK1 cells (cynomolgus monkey, UniProt A0A2K5VYQ9 31-507).
T2 construct: whole, on cells; also called CHOK1-cyno SIRPα-2A2 cells; CHOK1-cyno SIRPα
T2 sequence: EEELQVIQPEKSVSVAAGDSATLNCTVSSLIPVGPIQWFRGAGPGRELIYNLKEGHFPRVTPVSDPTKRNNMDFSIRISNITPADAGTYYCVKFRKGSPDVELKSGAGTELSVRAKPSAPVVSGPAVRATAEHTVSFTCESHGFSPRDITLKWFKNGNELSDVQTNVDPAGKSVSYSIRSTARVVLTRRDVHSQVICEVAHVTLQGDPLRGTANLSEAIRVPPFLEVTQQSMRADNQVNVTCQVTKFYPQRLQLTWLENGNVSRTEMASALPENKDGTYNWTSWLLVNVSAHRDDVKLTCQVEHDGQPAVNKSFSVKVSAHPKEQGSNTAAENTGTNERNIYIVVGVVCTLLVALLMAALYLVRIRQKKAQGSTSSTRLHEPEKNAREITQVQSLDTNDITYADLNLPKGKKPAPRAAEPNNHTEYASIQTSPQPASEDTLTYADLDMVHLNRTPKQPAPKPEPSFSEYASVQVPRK
The experiment in a line: FACS on CHOK1 cells.

Assay [4] addresses T3, biotin labeled soluble human SIRPα v1 ECD recombinant protein (human, UniProt P78324 31-373, biotin labeled).
T3 construct: extracellular domain
The experiment in a line: competitive ELISA; competitor 022. As to the method: (§2) Competitive ELISA assay was used for epitope binning of 9 functional antibodies. Briefly excessive competitor antibody and biotin labeled soluble human SIRPα v1 ECD recombinant protein were co-incubated with ELISA microplate coated antibody. After washing, HRP-SA was added and incubated at 37° C. for 1 hour. Then, […] of TMB solution (Biotechnology) was added. After incubation for 15 minutes at room temperature, the reaction was stopped by the addition of […] of 1N HCl. OD 450 nm was read. Competition ratio was calculated. The antibodies that can compete each other for binding to SIRPα have the similar binding epitope.

The target of assay [5] is T3, biotin labeled soluble human SIRPα v1 …. The experiment in a line: competitive ELISA; competitor 035. As to the method:
as §2
(An ELISA detects its analyte on a solid surface through an enzyme-linked reagent.)

Assay [6] shares this target. The experiment in a line: competitive ELISA; competitor KWAR23. The protocol: as §2
Assay [7] concerns the target T4, Fc tagged human SIRPα v2 ECD recombinant protein (human).
T4 construct: range 1-369; cloned range M1-R369 includes the signal peptide; also called hSIRPα V2
Put plainly: ELISA. The protocol: (§3) Binding specificity of the purified hybridoma antibodies against SIRP family members was detected by ELISA assay using recombinant proteins of Fc tagged human SIRPα v1 ECD, human SIRPα v2 ECD, human SIRPβ ECD and human SIRPγ ECD. Briefly the antibodies were incubated with ELISA microplate coated antigens at 37° C. for 1 hour. After washing, horseradish peroxidase (HRP) labeled anti-mouse or anti-human IgG 2nd Ab (Sigma) was added and incubated at 37° C. for 1 hour. Then, 100 μl/well of TMB solution (Biotechnology) was added. After incubation for 15 minutes at room temperature, the reaction was stopped by the addition of 50 μl of 1N HCl. OD 450 nm was read and EC₅₀ was calculated. Other than 060 and HEFLB, all of the antibodies as tested can bind with both human SIRPα v1 and SIRPα v2. 060 and HEFLB can bind with human SIRPα v1 but not v2. Other than 055, all of the antibodies as tested can bind with human SIRPβ. In comparison with other known anti-SIRPα antibodies, only 022, 035 and 050 can bind with human SIRPγ weakly.

The target in assay [8] is T5, Fc tagged human SIRPα v1 ECD recombinant protein (human, UniProt P78324 31-370).
T5 construct: range 1-370; cloned range M1-R370 includes the signal peptide; also called hSIRPα V1; not shown: human IgG Fc region (hFc) of the pCPC vector
The experiment in a line: ELISA. As to the method:
as §3

For assay [9], the target named is T6, Fc tagged human SIRPβ ECD recombinant protein (human, UniProt O00241 30-371).
T6 construct: range 1-371; cloned range includes the signal peptide; also called hSIRPβ; not shown: human IgG Fc region (hFc) of the pCPC vector
Put plainly: ELISA. As to the method:
as §3

Assay [10] concerns the target T3, biotin labeled soluble human SIRPα v1 …. The experiment in a line: competitive ELISA; competitor 055. As to the method: as §2

B1: chimeric antibody 035c (antibody, V domains shown)
VH: QIQLVQSGPELRKPGETVKISCKASGYSFTNYAMNWVKQAPGKVLKWMGFINTYTGEPTYADDFKGRFAFSLETSASTAYLQINNLKNEDTATYFCTRTRGYYDFDGGAFDYWGQGTSLTVSS
VL: DIVMTQSQKFMSTSIGDRVSVTCKASQNVGTHLAWYQQKPGQSPKALIFSASYRYIGVPDRFTGSGSGTDFTLTITNVQSEDLAEYFCQQYNTYPLTFGAGTKLELK
A word on the Kd: it is the concentration at which binding is half-saturated. The term EC50 denotes the midpoint of the concentration-response curve. On to B1, for which the dissociation constant (Kd) amounted to 2.62 nM in assay [1] and 1.11 nM in assay [2]. In assay [3], the EC50 was found to be 0.42 nM.

B2: chimeric antibody 050c (antibody, V domains shown)
VH: QIQLVQSGPELKKPGETVKISCKASGYTFTHYSMHWVKQAPGKGLKWMGWINTETAEPTYVDDFKGRFAFSLEASASTAFFQINNLKNEDTATYFCARGGLRQGDYWGQGTTLTVSS
VL: QIVLTQSPPIMSASPGEKVTLTCSATSSVSASYLYWFQQKPGSSPKLWIYSTSNLASGVPARFSGSGSGTSYSLTISNMEPADAASYFCHQWSSYPYTFGGGTKLEIK
B2: the Kd in [1] came out at 4.72 nM; in [2], 3.07 nM.

B3: reference antibody KWAR23 (antibody, V domains shown)
VH: EVQLQQSGAELVKPGASVKLSCTASGFNIKDYYIHWVQQRTEQGLEWIGRIDPEDGETKYAPKFQDKATITADTSSNTAYLHLSSLTSEDTAVYYCARWGAYWGQGTLVTVSS
VL: QIVLTQSPAIMSASPGEKVTLTCSASSSVSSSYLYWYQQKPGSSPKLWIYSTSNLASGVPARFSGSGSGTSYSLTISSMEAEDAASYFCHQWSSYPRTFGAGTKLELK
As for B3, the “% Competition” value was determined as 6% in assay [4], 4% in [5], 95% in assay [6] and 1% in assay [10]. Also, the Kd amounted to 14.7 nM in [1] and 2.66 nM in assay [2]. Further, the EC50 in assay [7] is 0.22 nM; in assay [8], 0.17 nM; in assay [9], 0.18 nM.

B4: Antibody 050 (hybridoma antibody) (antibody, V domains shown)
VH: QIQLVQSGPELKKPGETVKISCKASGYTFTHYSMHWVKQAPGKGLKWMGWINTETAEPTYVDDFKGRFAFSLEASASTAFFQINNLKNEDTATYFCARGGLRQGDYWGQGTTLTVSS
VL: QIVLTQSPPIMSASPGEKVTLTCSATSSVSASYLYWFQQKPGSSPKLWIYSTSNLASGVPARFSGSGSGTSYSLTISNMEPADAASYFCHQWSSYPYTFGGGTKLEIK
notes: mouse hybridoma antibody
B4: the “% Competition” value was 79% in assay [4], -4% in [5], 0% in assay [6] and -16% in assay [10]. Also, the “MFI at 10 nM” value in assay [3] is 13600 MFI. The figures for the EC50 in [7], in [8] and in [9] were 0.08 nM, 0.08 nM and 0.11 nM, respectively.

B5: chimeric antibody 060c (antibody, V domains shown)
VH: QVQLKESGPGLVAPSESLSITCTVSGFSLTNYDISWIRQSPGKGLEWLGVIWTGGDTNFNSAFMSRLSISKDKSKSQVFLKLNSLQTDDTAIYYCVRVQYFGGSYGPMDYWGQGISVTVSS
VL: DIQMTQASSYLSVSLGGRVTITCEASDHINDWLAWYQQTPGNAPRLLISGATSLETGVPSRFSGSGSGKDYTLSITSLQTEDIATYYCQQYWNTPLTFGAGTRLELK
B5: the dissociation constant (Kd) in assay [2] worked out at 1.49 nM.

B6: chimeric antibody 055c (antibody, V domains shown)
VH: EVKLVESEGGLVQPGDSMKLSCTASGFTFSDYFMTWIRQVPEKGLEWIANVNYDGRSTYYLDSLKSRFIISRDNANNILYLQMSSLKSEDTATYYCAREGSQTPLYAVDYWGQGTSVTVSS
VL: DIVMTQSQKFMSTTVGDRVNITCKASQNVGTAVAWYQQKPGQSPKLLIYLASNRYTGVPDRFTGSGSGTDFTLTVSDMRSEDLADYFCQQYSIYPFTFGSGTKLEIK
For B6, the Kd came out at 28.5 nM in assay [1] and 16.6 nM in assay [2].

B7: chimeric antibody 022c (antibody, V domains shown)
VH: QIQLVQSGPELKKPGETVKISCKASGYTFTDYAMHWVKQAPGKGLKWMGWKNTETGESTYAEDFKGRFAFFLETSASTAYLQINNVKNEDTATYFCARGGYGSNYVMDYWGQGTSVIVSS
VL: DIQMTQSSSSFSVSLGDRVTITCKASEDIYNRLAWYQQKPGNAPRLLISGATSLETGVPSRFSGSGSGKDYTLSITSLQTEDVATYYCQQYWNSPRTFGGGTKLEIK
In the case of B7, the Kd in assay [1] is 25.6 nM; in assay [2], 5.9 nM.

B8: chimeric antibody 074c (antibody, V domains shown)
VH: QVQLQQPRAELVKPGASVMLSCKASGYTFSSYWIHWVRQGPGQGLEWIGLIHPNSGNTDCSETFKNKATLTVDTSSSTAYMQLSSLASEDSAVYYCARDGASYDWFVHWGQGTLVTVSA
VL: not shown
Consider B8, for which the Kd in assay [1] came out at 25.2 nM; in assay [2], 4.4 nM.

B9: chimeric antibody 001c (antibody, V domains shown)
VH: EVKLEESGGGLVQPGGSMKLSCVASGFTFRNYWMNWVRQSPERGLEWIAEISLKSNTYATHYAESVKGRFAISRDGSKSSFYLQMNDLRAEDTGIYYCTTFTKVVADWHLDVWGAGTTVTVSS
VL: DVLMTQTPLSLPVSLGDQASISCRSSQNIVHSNGNTYLEWYLQKPGQSPKLLIYKVSNRFSGVPDRFSGSGSGTDFTLRISRVEAEDLGVYYCFQGSHVPFTFGSGTKLEIK
For B9, the Kd in assay [1] amounted to 20.6 nM; in assay [2], 11.4 nM.

B10: chimeric antibody 032c (antibody, V domains shown)
VH: EVRLEESGGGLVQPGGSMKLSCVVSGFTFRNYWMNWVRQSPERGLEWIAEITLKSNTYATHYAESVKGRFAISRDDSKSSFYLQMNDLRPEDTGIYYCTTFTKVVADWHLDVWGAGTTVTVSS
VL: DVLMTQTPLSLPVNLGDQASISCRSSQNIVHSNGNTYLEWYLQKPGQSPKLLIYKVSNRFSGVPDRFSGSGSGTDFTLRISRVEAEDLGVYYCFQGSHVPFTFGSGTKLEIK
For B10, the Kd was determined as 14.7 nM in assay [1] and 8.92 nM in [2].

B11: chimeric antibody 002c (antibody, V domains shown)
VH: EVKLEESGGGLVQPGGSMILSCVASGFTFRNYWMNWVRQSPERGLEWIAEITLKSNTYATHYAESVKGRFAISRDDSKSSFYLQMNDLRPEDTGIYYCTTFTKVVADWHLDVWGAGTTVTVSS
VL: DVLMTQTPLSLPVSLGDQASISCRSSQNIVHSNGNTYLEWYLQKPGQSPKLLIYKISNRFSGVPDRFSGSGSGTDFTLRISRVEAEDLGVYYCFQGSHVPFTFGSGTKLEIQ
As for B11, the Kd worked out at 28.3 nM in assay [1] and 16.1 nM in [2].
